Our source for the background-corrected fluorescence values is the supplement of paper PMC9428881.

± gives the standard error.

The series in a line: background-corrected fluorescence of 3'-dye-labeled ssDNA relative to brightest sequence (3'-GCGCG) (fraction); higher = brighter dye fluorescence (less quenching). The gist of the method:
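Subtracting background from unlabeled oligos and scaling to the brightest sequence gave the reported fluorescence. Single-stranded DNA bearing a 3' Cy3 or Cy5 dye next to each of 1024 permuted pentamers was assembled on glass slides by light-directed phosphoramidite synthesis. Following a 2 h r.t. acetonitrile wash, slides were scanned at 532 or 635 nm before and after overnight ethylenediamine/ethanol deprotection, and values were averaged over 10 features per array and at least 3 syntheses.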

With “TTTTTTCAGCATGAGCATCATTTTTTTTTTTTTTTGTCTG”, the background-corrected fluorescence is 0.54 ± 0.031 (dye: Cy3 (3' terminal)) and 0.387 ± 0.025 (dye: Cy5 (3' terminal)).
For “TTTTTTGATGAGCAGCATGATTTTTTTTTTTTTTTCCTTC [CTTCC]” the same measures were 0.362 ± 0.03 and 0.288 ± 0.03.
The corresponding values for “TTTTTTGCTCATCATGCGCATTTTTTTTTTTTTTTAGGAT” are 0.637 ± 0.019 and 0.463 ± 0.028.
For “TTTTTTCATCATGAGCATGATTTTTTTTTTTTTTTGGCTC [CTCGG]” the same measures were 0.425 ± 0.028 and 0.337 ± 0.05.
As to “TTTTTGCATGCGCATCATGATTTTTTTTTTTTTTTTATGC [CGTAT]”, the background-corrected fluorescence by setting is: (dye: Cy3 (3' terminal)) 0.5 ± 0.026; (dye: Cy5 (3' terminal)) 0.377 ± 0.024.
Consider “TTTTTTGCTCATGCGCATCATTTTTTTTTTTTTTTAGATG [GTAGA]”, for which the background-corrected fluorescence (dye: Cy3 (3' terminal)) turned out to be 0.552 ± 0.027 and the background-corrected fluorescence (dye: Cy5 (3' terminal)) worked out at 0.439 ± 0.018.
Turning to “TTTTTTGATGCTCATGCGCATTTTTTTTTTTTTTTCAGAT [TAGAC]”, the background-corrected fluorescence is 0.576 ± 0.018 (dye: Cy3 (3' terminal)) and 0.469 ± 0.021 (dye: Cy5 (3' terminal)).
The corresponding values for “TTTTTTGAGCATGCGCATGATTTTTTTTTTTTTTTCTATC” are 0.373 ± 0.025 and 0.309 ± 0.018.
For “TTTTTTCATGATCATGAGCATTTTTTTTTTTTTTTGCGCT [TCGCG]” the same measures were 0.623 ± 0.022 and 0.485 ± 0.025.
The corresponding values for “TTTTTTCAGCATGCTGATGCTTTTTTTTTTTTTTTGTACA [ACATG]” are 0.528 ± 0.0051 and 0.399 ± 0.019.
Consider “TTTTTTGCTCAGCATCATGCTTTTTTTTTTTTTTTAGTGA”, for which the background-corrected fluorescence by setting is: (dye: Cy3 (3' terminal)) 0.645 ± 0.022; (dye: Cy5 (3' terminal)) 0.536 ± 0.037.
For “TTTTTTGAGCATGAGCATGATTTTTTTTTTTTTTTCTCTC”, the background-corrected fluorescence amounted to 0.357 ± 0.036 (dye: Cy3 (3' terminal)) and 0.284 ± 0.019 (dye: Cy5 (3' terminal)).
For “TTTTTGCATGCTCATGCTGATTTTTTTTTTTTTTTTAGAC [CAGAT]” the same measures were 0.463 ± 0.023 and 0.369 ± 0.015.
The corresponding values for “TTTTTGCATGCTGATCATGCTTTTTTTTTTTTTTTTACGA [AGCAT]” are 0.627 ± 0.026 and 0.491 ± 0.031.
The corresponding values for “TTTTTTGATCATGAGCATGATTTTTTTTTTTTTTTCGCTC [CTCGC]” are 0.452 ± 0.039 and 0.318 ± 0.024.
On to “TTTTTTGCTCATGCTGAGCATTTTTTTTTTTTTTTAGACT [TCAGA]”, for which the background-corrected fluorescence runs as follows: (dye: Cy3 (3' terminal)) 0.519 ± 0.025; (dye: Cy5 (3' terminal)) 0.389 ± 0.039.
For “TTTTTGCAGCATGCGCATCATTTTTTTTTTTTTTTTTATG [GTATT]” the same measures were 0.467 ± 0.015 and 0.366 ± 0.024.
The corresponding values for “TTTTTTCATGCGCATGATGCTTTTTTTTTTTTTTTGATCA [ACTAG]” are 0.535 ± 0.034 and 0.43 ± 0.022.
For “TTTTTGCAGCATGCTCATGATTTTTTTTTTTTTTTTTAGC [CGATT]” the same measures were 0.506 ± 0.028 and 0.385 ± 0.023.
On to “TTTTTGCATCATGCTGCTCATTTTTTTTTTTTTTTTGAAG [GAAGT]”, for which the background-corrected fluorescence by setting is: (dye: Cy3 (3' terminal)) 0.564 ± 0.02; (dye: Cy5 (3' terminal)) 0.44 ± 0.024.
For “TTTTTTCATGCTGCTGCGCATTTTTTTTTTTTTTTGAAAT [TAAAG]” the same measures were 0.574 ± 0.015 and 0.419 ± 0.025.
The corresponding values for “TTTTTGCATGCGCATCATCATTTTTTTTTTTTTTTTATGG [GGTAT]” are 0.576 ± 0.011 and 0.467 ± 0.023.
For “TTTTTTGCGCATGCTGCTGATTTTTTTTTTTTTTTATAAC [CAATA]” the same measures were 0.434 ± 0.032 and 0.327 ± 0.023.
For the sequence “TTTTTTCATGCGCATGATGATTTTTTTTTTTTTTTGATCC [CCTAG]”, the background-corrected fluorescence stood at 0.398 ± 0.022 (dye: Cy3 (3' terminal)) and 0.294 ± 0.027 (dye: Cy5 (3' terminal)).
For “TTTTTTGCGCAGCATGCTGCTTTTTTTTTTTTTTTATTAA [AATTA]” the same measures were 0.585 ± 0.024 and 0.416 ± 0.035.
For the sequence “TTTTTTGCGCATGCTGATGATTTTTTTTTTTTTTTATACC [CCATA]”, the background-corrected fluorescence was found to be 0.411 ± 0.027 (dye: Cy3 (3' terminal)) and 0.295 ± 0.018 (dye: Cy5 (3' terminal)).
For “TTTTTTGCTGAGCAGCATCATTTTTTTTTTTTTTTACTTG [GTTCA]”, the background-corrected fluorescence was found to be 0.503 ± 0.019 (dye: Cy3 (3' terminal)) and 0.4 ± 0.024 (dye: Cy5 (3' terminal)).
For “TTTTTGCATGCGCATGCTGCTTTTTTTTTTTTTTTTATAA [AATAT]” the same measures were 0.55 ± 0.038 and 0.441 ± 0.069.
With “TTTTTTGATGATGATCATCATTTTTTTTTTTTTTTCCCGG [GGCCC]”, the background-corrected fluorescence (dye: Cy3 (3' terminal)) worked out at 0.625 ± 0.027 and the background-corrected fluorescence (dye: Cy5 (3' terminal)) turned out to be 0.562 ± 0.072.
The corresponding values for “TTTTTGCATCATCATGATCATTTTTTTTTTTTTTTTGGCG [GCGGT]” are 0.631 ± 0.026 and 0.516 ± 0.065.
The corresponding values for “TTTTTGCATGATCATGCGCATTTTTTTTTTTTTTTTCGAT [TAGCT]” are 0.64 ± 0.011 and 0.441 ± 0.022.
The corresponding values for “TTTTTTGCTGCTCAGCAGCATTTTTTTTTTTTTTTAAGTT [TTGAA]” are 0.609 ± 0.021 and 0.433 ± 0.024.
Regarding “TTTTTTCATGCTCATCAGCATTTTTTTTTTTTTTTGAGGT [TGGAG]”, the background-corrected fluorescence reads like this: (dye: Cy3 (3' terminal)) 0.708 ± 0.038; (dye: Cy5 (3' terminal)) 0.56 ± 0.05.
For “TTTTTTCATGATCAGCATGCTTTTTTTTTTTTTTTGCGTA [ATGCG]” the same measures were 0.604 ± 0.026 and 0.466 ± 0.026.
Turning to “TTTTTTGATCATGATCAGCATTTTTTTTTTTTTTTCGCGT [TGCGC]”, the background-corrected fluorescence was 0.783 ± 0.029 (dye: Cy3 (3' terminal)) and 0.697 ± 0.048 (dye: Cy5 (3' terminal)).
The corresponding values for “TTTTTTGATGCGCATCAGCATTTTTTTTTTTTTTTCATGT [TGTAC]” are 0.615 ± 0.028 and 0.464 ± 0.032.
For “TTTTTTCAGCATGATGAGCATTTTTTTTTTTTTTTGTCCT [TCCTG]” the same measures were 0.464 ± 0.02 and 0.346 ± 0.024.
The corresponding values for “TTTTTTGATGCGCATGATGATTTTTTTTTTTTTTTCATCC [CCTAC]” are 0.38 ± 0.02 and 0.273 ± 0.017.
“TTTTTTCATGCTGCTGATGATTTTTTTTTTTTTTTGAACC [CCAAG]”: the background-corrected fluorescence runs as follows: (dye: Cy3 (3' terminal)) 0.41 ± 0.033; (dye: Cy5 (3' terminal)) 0.288 ± 0.027.
For “TTTTTTCATGCGCAGCATGCTTTTTTTTTTTTTTTGATTA [ATTAG]” the same measures were 0.547 ± 0.022 and 0.424 ± 0.034.
For “TTTTTGCATGATGATCATGCTTTTTTTTTTTTTTTTCCGA [AGCCT]” the same measures were 0.581 ± 0.026 and 0.552 ± 0.031.
For “TTTTTTCAGCATCAGCATGATTTTTTTTTTTTTTTGTGTC [CTGTG]” the same measures were 0.4591 ± 0.0035 and 0.356 ± 0.068.
On to “TTTTTGCATGATCATCAGCATTTTTTTTTTTTTTTTCGGT [TGGCT]”, for which the background-corrected fluorescence is 0.66 ± 0.028 (dye: Cy3 (3' terminal)) and 0.513 ± 0.035 (dye: Cy5 (3' terminal)).
For “TTTTTGCATGAGCAGCATGATTTTTTTTTTTTTTTTCTTC [CTTCT]” the same measures were 0.382 ± 0.043 and 0.282 ± 0.018.
For “TTTTTTGATGCTCATCATCATTTTTTTTTTTTTTTCAGGG [GGGAC]” the same measures were 0.723 ± 0.023 and 0.574 ± 0.026.
